For one data set, the system named is hTERT-HMEC. Put plainly: percentage of EdU-negative (G0-arrested) nuclei per well, 72 h; higher = more G0 arrest. The note with it: reference: sequence is the full UniProt precursor, the tested protein was the secreted form or ectodomain.
In the next data set the test system is MCF7. The description is as above. The note with it: reference: sequence is the full UniProt precursor, the tested protein was the secreted form or ectodomain.
[1] abbreviates: protein concentration 0.0135 µM.
Where [2] appears, read: protein concentration 0.0193425 µM.
Setting [3] is: protein concentration 0.193425 µM.
Setting [4] is: protein concentration 0.0225 µM.
The mark [5] stands for this setting: protein concentration 0.02085 µM.
Setting [6] is: protein concentration 0.2085 µM.

± gives the standard deviation of the averaged measurements.
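Note: secreted proteins added to cultured cells, EdU pulse at the end, nuclei found by Hoechst imaging, EdU status from nuclear versus surrounding ring intensity ratio, PBS as neutral control.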

With “MDLRQFLMCLSLCTAFALSKPTEKKDRVHHEPQLSDKVHNDAQSFDYDHDAFLGAEEAKTFDQLTPEESKERLGKIVSKIDGDKDGFVTVDELKDWIKFAQKRWIYEDVERQWKGHDLNEDGLVSWEEYKNATYGYVLDDPDPDDGFNYKQMMVRDERRFKMADKDGDLIATKEEFTAFLHPEEYDYMKDIVVQETMEDIDKNADGFIDLEEYIGDMYSHDGNTDEPEWVKTEREQFVEFRDKNRDGKMDKEETKDWILPSDYDHAEAEARHLVYESDQNKDGKLTKEEIVDKYDLFVGSQATDFGEALVRHDEF”, the “percentage of EdU-negative” value in the data set on hTERT-HMEC (setting [1]) was 5.58 ± 1.3%; in the data set on hTERT-HMEC (protein concentration 0.135 µM), 7.65 ± 0.27%; in the data set with MCF7 (setting [1]) it was 22.72 ± 0.078%; with MCF7 (protein concentration 0.135 µM), 23.6 ± 3.3%.

“MDLSAAAALCLWLLSACRPRDGLEAAAVLRAAGAGPVRSPGGGGGGGGGGRTLAQAAGAAAVPAAAVPRARAARRAAGSGFRNGSVVPHHFMMSLYRSLAGRAPAGAAAVSASGHGRADTITGFTDQATQDESAAETGQSFLFDVSSLNDADEVVGAELRVLRRGSPESGPGSWTSPPLLLLSTCPGAARAPRLLYSRAAEPLVGQRWEAFDVADAMRRHRREPRPPRAFCLLLRAVAGPVPSPLALRRLGFGWPGGGGSAAEERAVLVVSSRTQRKESLFREIRAQARALGAALASEPLPDPGTGTASPRAVIGGRRRRRTALAGTRTAQGSGGGAGRGHGRRGRSRCSRKPLHVDFKELGWDDWIIAPLDYEAYHCEGLCDFPLRSHLEPTNHAIIQTLLNSMAPDAAPASCCVPARLSPISILYIDAANNVVYKQYEDMVVEACGCR [Q7Z4P5]”: the “percentage of EdU-negative” value was determined as 5.309 ± 0.0057% in the data set on hTERT-HMEC (setting [2]), 5.34 ± 1.2% in the data set with hTERT-HMEC (setting [3]), 26.75 ± 0.031% in the data set on MCF7 (setting [2]) and 28.9 ± 2.2% in the data set on MCF7 (setting [3]).

As for “MDLSLLWVLLPLVTMAWGQYGDYGYPYQQYHDYSDDGWVNLNRQGFSYQCPQGQVIVAVRSIFSKKEGSDRQWNYACMPTPQSLGEPTECWWEEINRAGMEWYQTCSNNGLVAGFQSRYFESVLDREWQFYCCRYSKRCPYSCWLTTEYPGHYGEEMDMISYNYDYYIRGATTTFSAVERDRQWKFIMCRMTEYDCEFANV”, the “percentage of EdU-negative” value in the data set with hTERT-HMEC (setting [4]) came to 5.38 ± 0.62%; in the data set on hTERT-HMEC (protein concentration 0.225 µM), 4.92 ± 0.97%; in the data set on MCF7 (setting [4]) it was 25.1 ± 0.98%; with MCF7 (protein concentration 0.225 µM) it was 26.2 ± 0.3%.

In the case of “MDLSRPRWSLWRRVFLMASLLACGICQASGQIFITQTLGIKGYRTVVALDKVPEDVQEYSWYWGANDSAGNMIISHKPPSAQQPGPMYTGRERVNREGSLLIRPTALNDTGNYTVRVVAGNETQRATGWLEVLELGSNLGISVNASSLVENMDSVAADCLTNVTNITWYVNDVPTSSSDRMTISPDGKTLVILRVSRYDRTIQCMIESFPEIFQRSERISLTVAYGPDYVLLRSNPDDFNGIVTAEIGSQVEMECICYSFLDLKYHWIHNGSLLNFSDAKMNLSSLAWEQMGRYRCTVENPVTQLIMYMDVRIQAPHEDLTCCPQRFLHLRIHGDVPHHADSAGWRLHLWSPDPCSDQPLLNQDKSGSMSVHPRPEDKTRRASR [A8MTB9]”, the “percentage of EdU-negative” value in the data set with hTERT-HMEC (setting [4]) stood at 4.89 ± 0.18%; with hTERT-HMEC (protein concentration 0.225 µM), 4.46 ± 0.032%; with MCF7 (setting [4]), 28.6 ± 0.05%; with MCF7 (protein concentration 0.225 µM) it was 27.4 ± 0.32%.

On to “MDLVLKRCLLHLAVIGALLAVGATKVPRNQDWLGVSRQLRTKAWNRQLYPEWTEAQRLDCWRGGQVSLKVSNDGPTLIGANASFSIALNFPGSQKVLPDGQVIWVNNTIINGSQVWGGQPVYPQETDDACIFPDGGPCPSGSWSQKRSFVYVWKTWGQYWQVLGGPVSGLSIGTGRAMLGTHTMEVTVYHRRGSRSYVPLAHSSSAFTITDQVPFSVSVSQLRALDGGNKHFLRNQPLTFALQLHDPSGYLAEADLSYTWDFGDSSGTLISRALVVTHTYLEPGPVTAQVVLQAAIPLTSCGSSPVPGTTDGHRPTAEAPNTTAGQVPTTEVVGTTPGQAPTAEPSGTTSVQVPTTEVISTAPVQMPTAESTGMTPEKVPVSEVMGTTLAEMSTPEATGMTPAEVSIVVLSGTTAAQVTTTEWVETTARELPIPEPEGPDASSIMSTESITGSLGPLLDGTATLRLVKRQVPLDCVLYRYGSFSVTLDIVQGIESAEILQAVPSGEGDAFELTVSCQGGLPKEACMEISSPGCQPPAQRLCQPVLPSPACQLVLHQILKGGSGTYCLNVSLADTNSLAVVSTQLIMPGQEAGLGQVPLIVGILLVLMAVVLASLIYRRRLMKQDFSVPQLPHSSSHWLRLPRIFCSCPIGENSPLLSGQQV”, for which the “percentage of EdU-negative” value in the data set on hTERT-HMEC (setting [5]) was 4.37 ± 0.18%; in the data set on hTERT-HMEC (setting [6]), 5.18 ± 0.52%; in the data set with MCF7 (setting [5]) it was 25.3 ± 1.8%; with MCF7 (setting [6]), 25.4 ± 2.4%.

For the origin of these results see the supplement of paper PMC11316812.
